Measurements: PMC4942342

Biological target: sHRPb-NLG (evolved sHRPb fused to neuroligin) (horseradish | not stated)
Test: split reporter

sHRPa-NRX (evolved sHRPa fused to neurexin)
signal to noise ratio (fluorescence intensity relative to background): 1.5 to 13.4
